Measured values: paper PMC6868016

What was measured:
[1] = target: ACP-GluA1 (GluA1 tagged with the acyl carrier protein at its N-terminus) (mouse); experiment: single-molecule fluorescence tracking (TIRF), colocalization durations, simultaneous two colours; living HEK293 cells, plasma membrane, TARP2-mGFP with ATTO594-labelled ACP-GluA1 or ACP-GluA2 monomers and homodimers; lifetimes corrected for photobleaching
[2] = target: ACP-GluA2 (GluA2 tagged with the acyl carrier protein at its N-terminus), P23819; experiment: as above; conditions: remark: other sources report otherwise
ACP-GluA2 (GluA2 tagged with the acyl carrier protein at its N-terminus), P23819, sequence (P23819 25-883): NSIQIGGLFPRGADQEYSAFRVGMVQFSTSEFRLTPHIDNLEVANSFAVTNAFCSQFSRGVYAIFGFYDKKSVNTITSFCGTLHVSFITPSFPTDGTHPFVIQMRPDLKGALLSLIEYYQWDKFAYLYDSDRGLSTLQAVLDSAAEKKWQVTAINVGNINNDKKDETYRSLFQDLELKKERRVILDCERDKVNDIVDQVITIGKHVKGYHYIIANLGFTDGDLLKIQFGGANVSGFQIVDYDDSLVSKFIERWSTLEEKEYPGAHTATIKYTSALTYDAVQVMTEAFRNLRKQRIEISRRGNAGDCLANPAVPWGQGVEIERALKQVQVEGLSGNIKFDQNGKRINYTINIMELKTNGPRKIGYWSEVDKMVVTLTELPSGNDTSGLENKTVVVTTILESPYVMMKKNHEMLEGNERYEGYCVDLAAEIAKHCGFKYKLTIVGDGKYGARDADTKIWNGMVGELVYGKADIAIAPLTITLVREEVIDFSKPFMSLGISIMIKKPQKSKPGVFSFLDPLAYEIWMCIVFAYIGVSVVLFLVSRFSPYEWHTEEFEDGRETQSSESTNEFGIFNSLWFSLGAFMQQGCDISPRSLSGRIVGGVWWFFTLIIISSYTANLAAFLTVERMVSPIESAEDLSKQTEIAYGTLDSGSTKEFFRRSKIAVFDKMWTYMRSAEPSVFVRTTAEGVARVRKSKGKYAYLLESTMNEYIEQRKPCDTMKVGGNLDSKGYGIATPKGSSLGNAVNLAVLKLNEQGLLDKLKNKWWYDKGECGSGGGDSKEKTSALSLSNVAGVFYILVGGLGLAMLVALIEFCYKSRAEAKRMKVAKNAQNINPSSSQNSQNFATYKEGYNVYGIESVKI

ACP-GluA1 (GluA1 tagged with the acyl carrier protein at its N-terminus) (mouse), sequence (P23818 19-907): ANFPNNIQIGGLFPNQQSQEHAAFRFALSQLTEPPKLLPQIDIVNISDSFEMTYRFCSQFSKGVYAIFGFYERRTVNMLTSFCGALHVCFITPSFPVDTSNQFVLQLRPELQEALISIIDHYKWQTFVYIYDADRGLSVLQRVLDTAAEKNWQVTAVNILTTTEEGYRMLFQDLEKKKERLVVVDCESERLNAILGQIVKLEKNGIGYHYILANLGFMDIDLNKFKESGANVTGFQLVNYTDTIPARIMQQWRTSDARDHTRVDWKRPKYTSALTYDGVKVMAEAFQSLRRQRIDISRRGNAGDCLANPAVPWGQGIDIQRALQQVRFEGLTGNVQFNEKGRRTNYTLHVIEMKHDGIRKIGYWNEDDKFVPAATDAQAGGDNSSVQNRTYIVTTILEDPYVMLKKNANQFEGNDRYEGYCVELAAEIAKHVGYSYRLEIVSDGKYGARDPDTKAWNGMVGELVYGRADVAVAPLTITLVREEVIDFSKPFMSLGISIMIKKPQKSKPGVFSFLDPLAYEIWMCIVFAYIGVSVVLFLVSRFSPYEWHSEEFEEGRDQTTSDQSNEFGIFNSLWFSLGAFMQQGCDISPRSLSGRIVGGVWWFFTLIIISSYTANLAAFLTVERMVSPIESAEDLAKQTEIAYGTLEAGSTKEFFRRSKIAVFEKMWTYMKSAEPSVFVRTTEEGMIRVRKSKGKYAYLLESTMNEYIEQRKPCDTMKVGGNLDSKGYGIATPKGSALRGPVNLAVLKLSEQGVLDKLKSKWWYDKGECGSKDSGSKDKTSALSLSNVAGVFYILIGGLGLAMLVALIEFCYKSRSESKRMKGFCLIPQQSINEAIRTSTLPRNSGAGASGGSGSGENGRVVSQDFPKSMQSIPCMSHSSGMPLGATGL

lifetime of binding (to GluA1 monomers and to GluA1 homodimers) [1] [ms]	lifetime of binding (to GluA2 monomers and to GluA2 homodimers) [2] [ms]	Binder
200		TARP2-mGFP (transmembrane AMPA receptor regulatory protein 2 with mGFP fused to its C-terminus) (natural protein) MGLFDRGVQMLLTTVGAFAAFSLMTIAVGTDYWLYSRGVCKTKSVSENETSKKNEEVMTHSGLWRTCCLEGNFKGLCKQIDHFPEDADYEADTAEYFLRAVRASSIFPILSVILLFMGGLCIAASEFYKTRHNIILSAGIFFVSAGLSNIIGIIVYISANAGDPSKSDSKKNSYSYGWSFYFGALSFIIAEMVGVLAVHMFIDRHKQLRATARATDYLQASAITRIPSYRYRYQRRSRSSSRSTEPSHSRDASPVGVKGFNTLPSTEISMYTLSRDPLKAATTPTATYNSDRDNSFLQVHNCIQKDSKDSLHANTANRRTTPV
	200	TARP2-mGFP (transmembrane AMPA receptor regulatory protein 2 with mGFP fused to its C-terminus), O88602 1-323 (natural protein, here or on the partner: ATTO594 on the ACP tag (ATTO594-Coenzyme A with ACP-synthase)) MGLFDRGVQMLLTTVGAFAAFSLMTIAVGTDYWLYSRGVCKTKSVSENETSKKNEEVMTHSGLWRTCCLEGNFKGLCKQIDHFPEDADYEADTAEYFLRAVRASSIFPILSVILLFMGGLCIAASEFYKTRHNIILSAGIFFVSAGLSNIIGIIVYISANAGDPSKSDSKKNSYSYGWSFYFGALSFIIAEMVGVLAVHMFIDRHKQLRATARATDYLQASAITRIPSYRYRYQRRSRSSSRSTEPSHSRDASPVGVKGFNTLPSTEISMYTLSRDPLKAATTPTATYNSDRDNSFLQVHNCIQKDSKDSLHANTANRRTTPV
